Laboratory results: ChEMBL document CHEMBL1137660, “Molecular and biochemical characterization of the chromosome-encoded class A beta-lactamase BCL-1 from Bacillus clausii” (Antimicrob Agents Chemother, 2007)

Assays:
[1] = substrate: CC(=O)OCC1=C(C(=O)O)N2C(=O)[C@@H](NC(=O)CCC[C@@H](N)C(=O)O)[C@H]2SC1; experiment: (§1) Activity of Bacillus cereus beta-lactamase BcI
[2] = substrate: CC1(C)S[C@@H]2[C@H](NC(=O)Cc3ccccc3)C(=O)N2[C@H]1C(=O)O; experiment: as §1
[3] = substrate: CC(C)(O/N=C(\C(=O)N[C@@H]1C(=O)N2C(C(=O)[O-])=C(C[n+]3ccccc3)CS[C@H]12)c1csc(N)n1)C(=O)O; experiment: (§2) Activity of Bacillus anthracis beta-lactamase Bla1
[4] = substrate: CO/N=C(\C(=O)N[C@@H]1C(=O)N2C(C(=O)O)=C(COC(C)=O)CS[C@H]12)c1csc(N)n1; experiment: as §2
[5] = substrate: CO/N=C(\C(=O)N[C@@H]1C(=O)N2C(C(=O)[O-])=C(C[N+]3(C)CCCC3)CS[C@H]12)c1csc(N)n1; experiment: as §2
[6] = substrate: O=C(Cc1cccs1)N[C@@H]1C(=O)N2C(C(=O)[O-])=C(C[n+]3ccccc3)CS[C@H]12; experiment: Ratio of Kcat to Km for Bacillus anthracis beta-lactamase Bla1
[7] = substrate: CC(=O)OCC1=C(C(=O)O)N2C(=O)[C@@H](NC(=O)Cc3cccs3)[C@H]2SC1; details: Shouchella clausii; NR
[8] = substrate: CC(C)(O/N=C(\C(=O)N[C@@H]1C(=O)N2C(C(=O)[O-])=C(C[n+]3ccccc3)CS[C@H]12)c1csc(N)n1)C(=O)O; details: Shouchella clausii; NR
[9] = substrate: CC1(C)S[C@@H]2[C@H](NC(=O)Cc3ccccc3)C(=O)N2[C@H]1C(=O)O; details: Shouchella clausii; NR
[10] = substrate: CC1(C)S[C@@H]2[C@H](NC(=O)[C@H](C(=O)O)c3ccsc3)C(=O)N2[C@H]1C(=O)O; details: Shouchella clausii; NR
[11] = substrate: CC1(C)S[C@@H]2[C@H](NC(=O)[C@H](N)c3ccc(O)cc3)C(=O)N2[C@H]1C(=O)O; details: Shouchella clausii; NR
[12] = substrate: CCN1CCN(C(=O)N[C@@H](C(=O)N[C@@H]2C(=O)N3[C@@H]2SC(C)(C)[C@@H]3C(=O)O)c2ccccc2)C(=O)C1=O; details: Shouchella clausii; NR
[13] = substrate: CO/N=C(\C(=O)N[C@@H]1C(=O)N2C(C(=O)O)=C(COC(C)=O)CS[C@H]12)c1csc(N)n1; details: Shouchella clausii; NR
[14] = substrate: CO/N=C(\C(=O)N[C@@H]1C(=O)N2C(C(=O)O)=C(COC(N)=O)CS[C@H]12)c1ccco1; details: Shouchella clausii; NR
[15] = substrate: CO/N=C(\C(=O)N[C@@H]1C(=O)N2C(C(=O)O)=C(CSc3nc(=O)c(O)nn3C)CS[C@H]12)c1csc(N)n1; details: Shouchella clausii; NR
[16] = substrate: CO/N=C(\C(=O)N[C@@H]1C(=O)N2C(C(=O)[O-])=C(C[N+]3(C)CCCC3)CS[C@H]12)c1csc(N)n1; details: Shouchella clausii; NR
[17] = substrate: CO/N=C(\C(=O)N[C@@H]1C(=O)N2C(C(=O)[O-])=C(C[n+]3cccc4c3CCC4)CS[C@H]12)c1csc(N)n1; details: Shouchella clausii; NR
[18] = substrate: CO[C@@]1(NC(=O)C(C(=O)O)c2ccc(O)cc2)C(=O)N2C(C(=O)O)=C(CSc3nnnn3C)CO[C@@H]21; details: Shouchella clausii; NR
[19] = substrate: CO[C@@]1(NC(=O)Cc2cccs2)C(=O)N2C(C(=O)O)=C(COC(N)=O)CS[C@@H]21; details: Shouchella clausii; NR
[20] = substrate: C[C@H]1[C@H](NC(=O)/C(=N\OC(C)(C)C(=O)O)c2csc(N)n2)C(=O)N1S(=O)(=O)O; details: Shouchella clausii; NR
[21] = substrate: O=C(Cc1cccs1)N[C@@H]1C(=O)N2C(C(=O)[O-])=C(C[n+]3ccccc3)CS[C@H]12; details: Shouchella clausii; NR
[22] = substrate: CC(=O)OCC1=C(C(=O)O)N2C(=O)[C@@H](NC(=O)Cc3cccs3)[C@H]2SC1; details: Shouchella clausii; NR; remark: listed apart in the source
[23] = substrate: CC(C)(O/N=C(\C(=O)N[C@@H]1C(=O)N2C(C(=O)[O-])=C(C[n+]3ccccc3)CS[C@H]12)c1csc(N)n1)C(=O)O; details: Shouchella clausii; NR; remark: listed apart in the source
[24] = substrate: CC1(C)S[C@@H]2[C@H](NC(=O)Cc3ccccc3)C(=O)N2[C@H]1C(=O)O; details: Shouchella clausii; NR; remark: listed apart in the source
[25] = substrate: CC1(C)S[C@@H]2[C@H](NC(=O)[C@H](C(=O)O)c3ccsc3)C(=O)N2[C@H]1C(=O)O; details: Shouchella clausii; NR; remark: listed apart in the source
[26] = substrate: CC1(C)S[C@@H]2[C@H](NC(=O)[C@H](N)c3ccc(O)cc3)C(=O)N2[C@H]1C(=O)O; details: Shouchella clausii; NR; remark: listed apart in the source
[27] = substrate: CCN1CCN(C(=O)N[C@@H](C(=O)N[C@@H]2C(=O)N3[C@@H]2SC(C)(C)[C@@H]3C(=O)O)c2ccccc2)C(=O)C1=O; details: Shouchella clausii; NR; remark: listed apart in the source
[28] = substrate: CO/N=C(\C(=O)N[C@@H]1C(=O)N2C(C(=O)O)=C(COC(C)=O)CS[C@H]12)c1csc(N)n1; details: Shouchella clausii; NR; remark: listed apart in the source
[29] = substrate: CO/N=C(\C(=O)N[C@@H]1C(=O)N2C(C(=O)O)=C(COC(N)=O)CS[C@H]12)c1ccco1; details: Shouchella clausii; NR; remark: listed apart in the source
[30] = substrate: CO/N=C(\C(=O)N[C@@H]1C(=O)N2C(C(=O)O)=C(CSc3nc(=O)c(O)nn3C)CS[C@H]12)c1csc(N)n1; details: Shouchella clausii; NR; remark: listed apart in the source
[31] = substrate: CO/N=C(\C(=O)N[C@@H]1C(=O)N2C(C(=O)[O-])=C(C[N+]3(C)CCCC3)CS[C@H]12)c1csc(N)n1; details: Shouchella clausii; NR; remark: listed apart in the source
[32] = substrate: CO/N=C(\C(=O)N[C@@H]1C(=O)N2C(C(=O)[O-])=C(C[n+]3cccc4c3CCC4)CS[C@H]12)c1csc(N)n1; details: Shouchella clausii; NR; remark: listed apart in the source
[33] = substrate: O=C(Cc1cccs1)N[C@@H]1C(=O)N2C(C(=O)[O-])=C(C[n+]3ccccc3)CS[C@H]12; details: Shouchella clausii; NR; remark: listed apart in the source

B1: Beta-lactamase 1 (Bacillus cereus), P00809 (protein)
chain: MILKNKRMLKIGICVGILGLSITSLEAFTGESLQVEAKEKTGQVKHKNQATHKEFSQLEKKFDARLGVYAIDTGTNQTISYRPNERFAFASTYKALAAGVLLQQNSIDSLNEVITYTKEDLVDYSPVTEKHVDTGMKLGEIAEAAVRSSDNTAGNILFNKIGGPKGYEKALRHMGDRITMSNRFETELNEAIPGDIRDTSTAKAIATNLKAFTVGNALPAEKRKILTEWMKGNATGDKLIRAGIPTDWVVGDKSGAGSYGTRNDIAVVWPPNSAPIIVLISSKDEKEAIYNDQLIAEATKVIVKGS
[1]
  kcat: 0.2 s⁻¹
[2]
  Km: 65 µM
  kcat: 2200 s⁻¹

B2: Beta-lactamase (Bacillus anthracis), Q93T42 (protein)
chain: MIVLKNKKMLKIGMCVGILGLSITSLVTFTGGALQVEAKEKTGQVKHKNQATHKEFSQLEKKFDARLGVYAIDTGTNQTIAYRPNERFAFASTYKALAAGVLLQQNSTKKLDEVITYTKEDLVDYSPVTEKHVDTGMTLGEIAEAAVRYSDNTAGNILFHKIGGPKGYEKALRQMGDRVTMSDRFETELNEAIPGDIRDTSTAKAIATNLKAFTAGNALPNHKRNILTKWMKGNATGDKLIRAGVPTNWVVADKSGAGSYGTRNDIAIVWPPNRAPIIIAILSSKDEKGATYDNQLIAEAAEVIVNAFR
[3]
  kcat: < 0.2 s⁻¹
[4]
  kcat: < 0.2 s⁻¹
[5]
  kcat: < 0.2 s⁻¹
[6]
  kcat/Km: 1.1e+06 M⁻¹ s⁻¹

B3: Beta-lactamase (Bacillus clausii), A8RR46 (protein)
chain: MKRSFFMLKTKITSSILVGACLLIGCSNGNEQPVSNEPEPEESVETGEAVFKALEEEYAARLGVFALDTGTGQTVSYRSDERFTYASAHKPLAVAVLLQQKSIEELEQLITYSADDLVNYNPITENHVETGMTLRELSDASIRYSDNTAANFIFDEIGGPEGFKEGLRAIGDTVTEPERIEPELNHVEPGEIQDTSTPEALAKSLQEFALGEALPADKQELLIDWLIGNTTGDALIRAGVPEGWEVGDKTGAGSYGTRNDIAILWPPEKEPIILAVLSSKDEKDAEYDDELIAKATEEVINLLAQTE
[7]
  Km: 15 µM
  kcat: 22 s⁻¹
[8]
  Km: 1000 µM
  kcat: > 3.3 s⁻¹
[9]
  Km: 12 µM
  kcat: 97 s⁻¹
[10]
  Km: 6 µM
  kcat: 5 s⁻¹
[11]
  Km: 22 µM
  kcat: 85 s⁻¹
[12]
  Km: 21 µM
  kcat: 38 s⁻¹
[13]
  Km: 790 µM
  kcat: 22 s⁻¹
[14]
  Km: 105 µM
  kcat: 15 s⁻¹
[15]
  Km: 950 µM
  kcat: 30 s⁻¹
[16]
  Km: > 1000 µM
  kcat: > 40 s⁻¹
[17]
  Km: 136 µM
  kcat: 95 s⁻¹
[18]
  kcat: < 0.01 s⁻¹
[19]
  Km: < 0.01 µM
  kcat: < 0.01 s⁻¹
[20]
  kcat: < 0.3 s⁻¹
[21]
  Km: 45 µM
  kcat: 115 s⁻¹
[22]
  kcat/Km: 1.5e+06 M⁻¹ s⁻¹
[23]
  kcat/Km: < 3000 M⁻¹ s⁻¹
[24]
  kcat/Km: 8e+06 M⁻¹ s⁻¹
[25]
  kcat/Km: 1e+06 M⁻¹ s⁻¹
[26]
  kcat/Km: 4e+06 M⁻¹ s⁻¹
[27]
  kcat/Km: 2e+06 M⁻¹ s⁻¹
[28]
  kcat/Km: 30000 M⁻¹ s⁻¹
[29]
  kcat/Km: 100000 M⁻¹ s⁻¹
[30]
  kcat/Km: 30000 M⁻¹ s⁻¹
[31]
  kcat/Km: < 40000 M⁻¹ s⁻¹
[32]
  kcat/Km: 1e+06 M⁻¹ s⁻¹
[33]
  kcat/Km: 2.5e+06 M⁻¹ s⁻¹
